Assay results published in patent publication US20250011363A1, “OPTIMIZED SHORTENED PEPTIDE THAT BINDS TO ACETYLCHOLINE RECEPTOR, AND USE THEREOF” (SKINMED CO., LTD., priority 2021, published 2025).

Target: acetylcholine receptor
Assay: SPR, receptor immobilized on CM5 chip, peptide 10 uM

Row | Binder | Binding affinity (RU)
1 | RRKDNR [6mer-1-878] | 27
2 | KRWVQK [6mer-1-319] | 123
3 | RKATKR [6mer-1-898] | 31
4 | RKRQSR [6mer-1-333] | 135
5 | KRPTIR [6mer-1-910] | 42
6 | KKIDDK [6mer-1-883] | 21
7 | KRCAAR [6mer-1-911] | 28
8 | KRPMDK [6mer-1-880] | 21
9 | KRIMEK [6mer-1-889] | 25
10 | KRCHFR [6mer-1-866] | 26
11 | KKGICK [6mer-1-309] | 153
12 | KKDTKR [6mer-1-904] | 31
13 | KKTNGR [6mer-1-875] | 33
14 | RKPNGR [6mer-1-901] | 35
15 | KRVQYR [6mer-1-320] | 121
16 | KRWLQK [6mer-1-328] | 151
17 | RRWLYR [6mer-1-323] | 149
18 | RRRILR [6mer-1-314] | 141
19 | KRKDER [6mer-1-869] | 22

Row | Binder | Binding affinity (RU)
20 | RKWRQK [6mer-1-329] | 123
21 | RKPAWR [6mer-1-907] | 42
22 | RRDKMK [6mer-1-902] | 39
23 | KRINHR [6mer-1-887] | 30
24 | RRGYQK [6mer-1-311] | 127
25 | RKFSNK [6mer-1-886] | 17
26 | KRWYRR [6mer-1-307] | 153
27 | RKQQTK [6mer-1-315] | 128
28 | RKQVRR [6mer-1-321] | 154
29 | KRYTKR [6mer-1-884] | 26
30 | RRPSIK [6mer-1-897] | 24
31 | KRDWIK [6mer-1-896] | 11
32 | RKLYSR [6mer-1-304] | 121
33 | KRRITR [6mer-1-308] | 135
34 | RKFCMR [6mer-1-909] | 33
35 | RRLQRR [6mer-1-324] | 128
36 | RRTSNK [6mer-1-890] | 18
37 | RRIPHR [6mer-1-893] | 22

Second part, the binder after the results:

Row | Binding affinity (RU) | Binder
38 | 13 | RKMAFR [6mer-1-891]
39 | 30 | KKINGK [6mer-1-906]
40 | 23 | KRPCHR [6mer-1-872]
41 | 128 | RKRITR [6mer-1-331]
42 | 19 | RKYWAR [6mer-1-876]
43 | 153 | RKWISR [6mer-1-305]
44 | 148 | RKVQRK [6mer-1-330]
45 | 25 | KRMSHR [6mer-1-870]
46 | 36 | RRICER [6mer-1-905]
47 | 151 | KKSRQK [6mer-1-312]
48 | 139 | KRGITR [6mer-1-327]
49 | 148 | KRSFRR [6mer-1-317]
50 | 37 | KKHKPR [6mer-1-903]
51 | 20 | KKHMER [6mer-1-881]
52 | 33 | KKTANK [6mer-1-888]
53 | 37 | KKFMVR [6mer-1-908]
54 | 30 | KREWDR [6mer-1-871]
55 | 23 | KRIWAR [6mer-1-873]
56 | 20 | RKTEKR [6mer-1-892]
57 | 33 | KKETFR [6mer-1-912]
58 | 18 | RKCWWR [6mer-1-894]

Row | Binding affinity (RU) | Binder
59 | 145 | RKQIRK [6mer-1-316]
60 | 25 | KKPAMR [6mer-1-882]
61 | 148 | RRWFCK [6mer-1-313]
62 | 135 | KKLFYR [6mer-1-306]
63 | 25 | KRIPMR [6mer-1-867]
64 | 31 | KRMKWK [6mer-1-899]
65 | 154 | RRRRLR [6mer-1-334]
66 | 142 | RRQIQR [6mer-1-325]
67 | 14 | KKHHAR [6mer-1-868]
68 | 18 | KRANHK [6mer-1-874]
69 | 146 | KRGVQR [6mer-1-322]
70 | 17 | RRKTPR [6mer-1-885]
71 | 136 | RKWIYK [6mer-1-326]
72 | 27 | RRYNNR [6mer-1-879]
73 | 28 | KKDSKK [6mer-1-895]
74 | 24 | RRDTGR [6mer-1-900]
75 | 19 | KKPEWR [6mer-1-877]
76 | 27 | KRFWWK [6mer-1-913]
77 | 122 | KKRVQK [6mer-1-332]
78 | 127 | RKRQLK [6mer-1-310]
79 | 145 | KKSRRK [6mer-1-318]
